Measured values published in IntAct's records for PubMed 35512704.

B1: Speckle-type POZ protein (Homo sapiens), O43791 (parent)
chain: MSRVPSPPPPAEMSSGPVAESWCYTQIKVVKFSYMWTINNFSFCREEMGEVIKSSTFSSGANDKLKWCLRVNPKGLDEESKDYLSLYLLLVSCPKSEVRAKFKFSILNAKGEETKAMESQRAYRFVQGKDWGFKKFIRRDFLLDEANGLLPDDKLTLFCEVSVVQDSVNISGQNTMNMVKVPECRLADELGGLWENSRFTDCCLCVAGQEFQAHKAILAARSPVFSAMFEHEMEESKKNRVEINDVEPEVFKEMMCFIYTGKAPNLDKMADDLLAAADKYALERLKVMCEDALCSNLSVENAAEILILADLHSADQLKTQAVDFINYHASDVLETSGWKSMVVSHPHLVAEAYRSLASAQCPFLGPPRKRLKQS

Variants of: B1
Settings: with pk3cg_human PIK3CG

Row | effect of a mutation on the interaction | Variant
1 | with no effect | F133V

Variants of: B1
Settings: with p85b_human PIK3R2, O00459

Row | effect of a mutation on the interaction | Variant
2 | with no effect | F133V

Variants of: B1
Settings: with dpod1_human POLD1, P28340

Row | effect of a mutation on the interaction | Variant
3 | with no effect | F133V

Variants of: B1
Settings: with dpoe1_human POLE

Row | effect of a mutation on the interaction | Variant
4 | with no effect | F133V

Variants of: B1
Settings: with ppard_human PPARD

Row | effect of a mutation on the interaction | Variant
5 | with no effect | F133V

Variants of: B1
Settings: with prdm1_human PRDM1, O75626

Row | effect of a mutation on the interaction | Variant
6 | with no effect | F133V

Variants of: B1
Settings: with prex2_human PREX2, Q70Z35

Row | effect of a mutation on the interaction | Variant
7 | with no effect | F133V

Variants of: B1
Settings: with aapk2_human PRKAA2, P54646
Chain of aapk2_human PRKAA2, P54646 (P54646 whole entry, looked up): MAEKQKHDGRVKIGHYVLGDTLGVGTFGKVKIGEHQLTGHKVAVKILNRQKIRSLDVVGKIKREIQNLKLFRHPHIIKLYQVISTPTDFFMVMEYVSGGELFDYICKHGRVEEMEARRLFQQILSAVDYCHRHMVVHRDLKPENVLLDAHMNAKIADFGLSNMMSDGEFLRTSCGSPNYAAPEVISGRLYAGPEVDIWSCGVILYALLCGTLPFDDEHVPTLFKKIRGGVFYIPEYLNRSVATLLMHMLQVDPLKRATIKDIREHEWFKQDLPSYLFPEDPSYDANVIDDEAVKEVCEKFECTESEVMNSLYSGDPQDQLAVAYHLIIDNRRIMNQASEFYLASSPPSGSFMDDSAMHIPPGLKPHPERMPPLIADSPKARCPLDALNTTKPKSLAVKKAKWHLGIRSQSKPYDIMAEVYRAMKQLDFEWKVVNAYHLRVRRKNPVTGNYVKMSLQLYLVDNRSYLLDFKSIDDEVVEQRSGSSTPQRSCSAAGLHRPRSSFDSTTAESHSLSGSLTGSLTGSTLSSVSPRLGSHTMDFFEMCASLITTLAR

Row | effect of a mutation on the interaction | Variant
8 | with no effect | F133V

Variants of: B1
Settings: with prss8_human PRSS8, Q16651

Row | effect of a mutation on the interaction | Variant
9 | with no effect | F133V

Variants of: B1
Settings: with ptk6_human PTK6, Q13882

Row | effect of a mutation on the interaction | Variant
10 | with no effect | F133V

Variants of: B1
Settings: with tf65_human RELA

Row | effect of a mutation on the interaction | Variant
11 | with no effect | F133V

Variants of: B1
Settings: with rictr_human RICTOR

Row | effect of a mutation on the interaction | Variant
12 | with no effect | F133V

Variants of: B1
Settings: with rnf43_human RNF43, Q68DV7

Row | effect of a mutation on the interaction | Variant
13 | with no effect | F133V

Variants of: B1
Settings: with ros1_human ROS1, P08922

Row | effect of a mutation on the interaction | Variant
14 | with no effect | F133V

Variants of: B1
Settings: with rl11_human RPL11, P62913

Row | effect of a mutation on the interaction | Variant
15 | with no effect | F133V

Variants of: B1
Settings: with rl5_human RPL5, P46777

Row | effect of a mutation on the interaction | Variant
16 | with no effect | F133V

Variants of: B1
Settings: with rs15_human RPS15, P62841

Row | effect of a mutation on the interaction | Variant
17 | with no effect | F133V

Variants of: B1
Settings: with rxra_human RXRA

Row | effect of a mutation on the interaction | Variant
18 | with no effect | F133V

Variants of: B1
Settings: with sdha_human SDHA

Row | effect of a mutation on the interaction | Variant
19 | with no effect | F133V

Variants of: B1
Settings: with setbp_human SETBP1, Q9Y6X0
Chain of setbp_human SETBP1, Q9Y6X0 (Q9Y6X0 whole entry): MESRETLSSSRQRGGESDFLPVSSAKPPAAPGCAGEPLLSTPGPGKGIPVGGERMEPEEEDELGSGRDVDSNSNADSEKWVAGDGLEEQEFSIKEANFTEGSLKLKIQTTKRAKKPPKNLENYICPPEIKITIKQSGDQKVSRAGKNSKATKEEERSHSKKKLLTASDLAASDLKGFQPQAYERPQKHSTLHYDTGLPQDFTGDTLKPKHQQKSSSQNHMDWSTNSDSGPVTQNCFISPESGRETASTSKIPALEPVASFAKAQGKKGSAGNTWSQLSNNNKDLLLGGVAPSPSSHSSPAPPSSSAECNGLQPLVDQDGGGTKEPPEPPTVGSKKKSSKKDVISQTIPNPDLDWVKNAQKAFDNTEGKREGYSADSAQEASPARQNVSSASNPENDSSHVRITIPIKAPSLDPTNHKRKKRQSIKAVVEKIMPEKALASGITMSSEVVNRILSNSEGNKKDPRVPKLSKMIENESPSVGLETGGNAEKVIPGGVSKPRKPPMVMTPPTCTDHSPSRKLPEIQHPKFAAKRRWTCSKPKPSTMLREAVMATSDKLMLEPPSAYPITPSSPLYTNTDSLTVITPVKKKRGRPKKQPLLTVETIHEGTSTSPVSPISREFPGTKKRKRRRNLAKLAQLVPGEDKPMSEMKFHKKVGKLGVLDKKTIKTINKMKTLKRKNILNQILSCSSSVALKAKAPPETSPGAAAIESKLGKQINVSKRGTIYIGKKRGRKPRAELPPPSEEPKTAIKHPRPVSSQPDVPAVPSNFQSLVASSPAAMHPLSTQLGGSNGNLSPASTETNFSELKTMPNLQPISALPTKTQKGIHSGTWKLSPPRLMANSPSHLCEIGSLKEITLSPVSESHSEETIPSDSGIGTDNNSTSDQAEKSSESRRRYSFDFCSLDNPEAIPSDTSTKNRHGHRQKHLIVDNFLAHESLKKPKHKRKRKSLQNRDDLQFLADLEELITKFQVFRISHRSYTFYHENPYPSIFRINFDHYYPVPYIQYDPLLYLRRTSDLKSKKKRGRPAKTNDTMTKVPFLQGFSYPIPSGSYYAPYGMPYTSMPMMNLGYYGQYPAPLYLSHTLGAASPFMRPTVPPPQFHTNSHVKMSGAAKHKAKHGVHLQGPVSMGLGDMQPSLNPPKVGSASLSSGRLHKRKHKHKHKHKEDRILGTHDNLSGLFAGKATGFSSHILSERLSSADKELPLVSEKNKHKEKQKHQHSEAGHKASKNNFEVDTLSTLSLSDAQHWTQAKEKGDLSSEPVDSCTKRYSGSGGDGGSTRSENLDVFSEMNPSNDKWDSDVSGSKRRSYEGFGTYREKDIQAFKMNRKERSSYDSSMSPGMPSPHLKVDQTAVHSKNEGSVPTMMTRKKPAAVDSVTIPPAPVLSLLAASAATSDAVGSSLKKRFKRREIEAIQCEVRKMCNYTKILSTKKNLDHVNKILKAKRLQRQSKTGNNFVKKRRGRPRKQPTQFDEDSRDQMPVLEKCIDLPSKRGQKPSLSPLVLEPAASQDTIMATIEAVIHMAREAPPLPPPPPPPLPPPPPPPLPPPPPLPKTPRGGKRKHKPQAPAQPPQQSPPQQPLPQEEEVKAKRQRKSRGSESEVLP

Row | effect of a mutation on the interaction | Variant
20 | with no effect | F133V

Variants of: B1
Settings: with setb1_human SETDB1, Q15047

Row | effect of a mutation on the interaction | Variant
21 | with no effect | F133V

Variants of: B1
Settings: with skp2_human SKP2, Q13309

Row | effect of a mutation on the interaction | Variant
22 | with no effect | F133V

Variants of: B1
Settings: with xct_human SLC7A11, Q9UPY5

Row | effect of a mutation on the interaction | Variant
23 | with no effect | F133V

Variants of: B1
Settings: with smad1_human SMAD1, Q15797

Row | effect of a mutation on the interaction | Variant
24 | with no effect | F133V

Variants of: B1
Settings: with smca4_human SMARCA4, P51532

Row | effect of a mutation on the interaction | Variant
25 | with no effect | F133V

Variants of: B1
Settings: with snf5_human SMARCB1, Q12824
Chain of snf5_human SMARCB1, Q12824 (Q12824 whole entry): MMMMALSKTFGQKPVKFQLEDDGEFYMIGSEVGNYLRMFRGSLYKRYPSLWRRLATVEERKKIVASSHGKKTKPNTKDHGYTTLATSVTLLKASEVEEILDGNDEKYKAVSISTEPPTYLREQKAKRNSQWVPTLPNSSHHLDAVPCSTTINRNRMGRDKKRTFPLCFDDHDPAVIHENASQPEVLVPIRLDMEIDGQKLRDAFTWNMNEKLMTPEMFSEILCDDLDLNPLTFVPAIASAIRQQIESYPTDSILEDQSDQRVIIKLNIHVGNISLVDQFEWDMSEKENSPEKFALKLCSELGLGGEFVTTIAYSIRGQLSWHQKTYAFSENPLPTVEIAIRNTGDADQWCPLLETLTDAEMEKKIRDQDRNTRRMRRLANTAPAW

Row | effect of a mutation on the interaction | Variant
26 | with no effect | F133V

Variants of: B1
Settings: with smo_human SMO

Row | effect of a mutation on the interaction | Variant
27 | with no effect | F133V

Variants of: B1
Settings: with smuf1_human SMURF1, Q9HCE7

Row | effect of a mutation on the interaction | Variant
28 | with no effect | F133V

Variants of: B1
Settings: with socs1_human SOCS1, O15524

Row | effect of a mutation on the interaction | Variant
29 | with no effect | F133V

Variants of: B1
Settings: with sox10_human SOX10, P56693

Row | effect of a mutation on the interaction | Variant
30 | with no effect | F133V

Variants of: B1
Settings: with sox2_human SOX2, P48431
Chain of sox2_human SOX2, P48431 (P48431 whole entry): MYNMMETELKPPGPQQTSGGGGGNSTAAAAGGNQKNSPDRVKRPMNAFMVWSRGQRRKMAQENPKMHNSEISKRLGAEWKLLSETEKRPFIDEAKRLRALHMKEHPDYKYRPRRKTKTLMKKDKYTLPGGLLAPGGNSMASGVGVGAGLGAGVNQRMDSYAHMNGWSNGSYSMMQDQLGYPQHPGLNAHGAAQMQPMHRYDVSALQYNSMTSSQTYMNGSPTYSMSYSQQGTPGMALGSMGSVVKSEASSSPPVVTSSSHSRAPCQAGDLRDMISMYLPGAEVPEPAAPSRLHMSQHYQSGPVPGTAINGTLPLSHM

Row | effect of a mutation on the interaction | Variant
31 | with no effect | F133V

Variants of: B1
Settings: with src_human SRC

Row | effect of a mutation on the interaction | Variant
32 | with no effect | F133V

Variants of: B1
Settings: with whr1_human WHR1, P49842

Row | effect of a mutation on the interaction | Variant
33 | with no effect | F133V

Variants of: B1
Settings: with stk38_human STK38, Q15208

Row | effect of a mutation on the interaction | Variant
34 | with no effect | F133V

Variants of: B1
Settings: with eloc_human ELOC

Row | effect of a mutation on the interaction | Variant
35 | with no effect | F133V

Variants of: B1
Settings: with tfe2_human TCF3, P15923

Row | effect of a mutation on the interaction | Variant
36 | with no effect | F133V

Variants of: B1
Settings: with tead1_human TEAD1, P28347

Row | effect of a mutation on the interaction | Variant
37 | with no effect | F133V

Variants of: B1
Settings: with tead3_human TEAD3, Q99594

Row | effect of a mutation on the interaction | Variant
38 | with no effect | F133V

Variants of: B1
Settings: with tead4_human TEAD4, Q15561
Chain of tead4_human TEAD4, Q15561 (Q15561 whole entry): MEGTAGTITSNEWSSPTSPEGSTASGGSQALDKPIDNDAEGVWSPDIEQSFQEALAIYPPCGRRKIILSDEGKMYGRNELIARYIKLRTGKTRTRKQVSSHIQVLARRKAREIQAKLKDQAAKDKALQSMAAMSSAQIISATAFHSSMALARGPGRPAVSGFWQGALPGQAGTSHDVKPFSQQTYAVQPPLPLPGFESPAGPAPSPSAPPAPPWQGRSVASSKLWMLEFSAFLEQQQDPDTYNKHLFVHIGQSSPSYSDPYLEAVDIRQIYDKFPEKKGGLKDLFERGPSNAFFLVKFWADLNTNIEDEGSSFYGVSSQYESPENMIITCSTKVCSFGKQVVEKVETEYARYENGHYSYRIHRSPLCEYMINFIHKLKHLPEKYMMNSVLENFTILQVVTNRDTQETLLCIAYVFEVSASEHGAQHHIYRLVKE

Row | effect of a mutation on the interaction | Variant
39 | with no effect | F133V

Variants of: B1
Settings: with tgfr2_human TGFBR2, P37173
Chain of tgfr2_human TGFBR2, P37173 (P37173 whole entry): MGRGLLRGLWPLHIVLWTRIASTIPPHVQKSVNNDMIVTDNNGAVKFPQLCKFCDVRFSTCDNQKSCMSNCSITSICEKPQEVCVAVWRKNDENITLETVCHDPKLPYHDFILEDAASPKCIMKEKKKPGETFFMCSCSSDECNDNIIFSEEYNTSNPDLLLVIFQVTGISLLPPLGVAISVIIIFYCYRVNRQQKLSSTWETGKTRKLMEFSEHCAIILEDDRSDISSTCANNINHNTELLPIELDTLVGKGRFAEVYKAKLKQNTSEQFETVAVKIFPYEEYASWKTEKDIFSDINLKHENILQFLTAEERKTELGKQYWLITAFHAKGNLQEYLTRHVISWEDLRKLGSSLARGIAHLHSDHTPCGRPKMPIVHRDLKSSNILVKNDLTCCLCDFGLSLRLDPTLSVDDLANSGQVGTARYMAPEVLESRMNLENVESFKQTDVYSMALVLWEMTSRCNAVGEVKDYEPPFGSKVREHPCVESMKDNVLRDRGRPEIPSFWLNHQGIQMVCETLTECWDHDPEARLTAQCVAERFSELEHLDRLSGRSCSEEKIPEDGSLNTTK

Row | effect of a mutation on the interaction | Variant
40 | with no effect | F133V

Variants of: B1
Settings: with tnr14_human TNFRSF14, Q92956

Row | effect of a mutation on the interaction | Variant
41 | with no effect | F133V

Variants of: B1
Settings: with tpx2_human TPX2, Q9ULW0

Row | effect of a mutation on the interaction | Variant
42 | with no effect | F133V

Variants of: B1
Settings: with tsc2_human TSC2, P49815

Row | effect of a mutation on the interaction | Variant
43 | with no effect | F133V

Variants of: B1
Settings: with tshr_human TSHR

Row | effect of a mutation on the interaction | Variant
44 | with no effect | F133V

Variants of: B1
Settings: with vegfa_human VEGFA

Row | effect of a mutation on the interaction | Variant
45 | with no effect | F133V

Variants of: B1
Settings: with vhl_human VHL

Row | effect of a mutation on the interaction | Variant
46 | with no effect | F133V

Variants of: B1
Settings: with wee1_human WEE1, P30291

Row | effect of a mutation on the interaction | Variant
47 | with no effect | F133V

Variants of: B1
Settings: with wwtr1_human WWTR1, Q9GZV5

Row | effect of a mutation on the interaction | Variant
48 | with no effect | F133V

Variants of: B1
Settings: with xpo1_human XPO1, O14980

Row | effect of a mutation on the interaction | Variant
49 | with no effect | F133V

Variants of: B1
Settings: with cblb_human CBLB

Row | effect of a mutation on the interaction | Variant
50 | causing an interaction | F133V

Variants of: B1
Settings: with jun_human JUN

Row | effect of a mutation on the interaction | Variant
51 | causing an interaction | F133V

Variants of: B1
Settings: with kdm6a_human KDM6A

Row | effect of a mutation on the interaction | Variant
52 | causing an interaction | F133V

Variants of: B1
Settings: with pax5_human PAX5, Q02548
Chain of pax5_human PAX5, Q02548 (Q02548 whole entry): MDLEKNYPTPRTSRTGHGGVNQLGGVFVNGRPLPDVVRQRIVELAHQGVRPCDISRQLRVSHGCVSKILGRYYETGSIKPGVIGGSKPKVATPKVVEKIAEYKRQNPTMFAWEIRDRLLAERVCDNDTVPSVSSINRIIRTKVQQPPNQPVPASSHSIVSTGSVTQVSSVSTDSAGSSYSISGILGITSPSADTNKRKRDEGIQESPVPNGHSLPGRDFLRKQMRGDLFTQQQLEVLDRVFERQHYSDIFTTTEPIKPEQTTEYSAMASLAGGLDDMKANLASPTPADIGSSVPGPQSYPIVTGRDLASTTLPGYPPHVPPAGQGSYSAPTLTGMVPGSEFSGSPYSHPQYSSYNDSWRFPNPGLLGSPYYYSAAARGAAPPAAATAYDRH

Row | effect of a mutation on the interaction | Variant
53 | causing an interaction | F133V

Variants of: B1
Settings: with PIK3C2B

Row | effect of a mutation on the interaction | Variant
54 | causing an interaction | F133V

Variants of: B1
Settings: with e2f5_human E2F5, Q15329

Row | effect of a mutation on the interaction | Variant
55 | causing an interaction | F133V

Variants of: B1
Settings: with cul3_human CUL3, Q13618
Chain of cul3_human CUL3, Q13618 (Q13618 whole entry): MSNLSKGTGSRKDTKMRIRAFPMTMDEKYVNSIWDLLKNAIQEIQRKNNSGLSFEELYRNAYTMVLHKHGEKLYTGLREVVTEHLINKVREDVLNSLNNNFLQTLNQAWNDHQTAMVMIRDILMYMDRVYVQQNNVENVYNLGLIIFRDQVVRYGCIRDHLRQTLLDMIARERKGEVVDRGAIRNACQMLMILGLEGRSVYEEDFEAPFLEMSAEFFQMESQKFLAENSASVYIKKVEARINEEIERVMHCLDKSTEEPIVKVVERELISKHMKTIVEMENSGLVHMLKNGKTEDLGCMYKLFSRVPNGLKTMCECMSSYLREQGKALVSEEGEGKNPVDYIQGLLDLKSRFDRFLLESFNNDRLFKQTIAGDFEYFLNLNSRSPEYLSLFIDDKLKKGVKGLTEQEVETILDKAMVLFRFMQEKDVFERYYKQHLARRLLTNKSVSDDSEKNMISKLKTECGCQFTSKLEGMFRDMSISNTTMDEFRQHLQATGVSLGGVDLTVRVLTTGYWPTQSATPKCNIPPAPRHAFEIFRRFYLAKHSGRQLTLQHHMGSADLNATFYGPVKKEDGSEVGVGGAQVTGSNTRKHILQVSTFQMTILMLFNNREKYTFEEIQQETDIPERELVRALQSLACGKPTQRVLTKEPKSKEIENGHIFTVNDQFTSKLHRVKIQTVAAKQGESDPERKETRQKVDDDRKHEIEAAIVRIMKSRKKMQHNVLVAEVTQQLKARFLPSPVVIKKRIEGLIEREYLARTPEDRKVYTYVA

Row | effect of a mutation on the interaction | Variant
56 | increasing interaction strength | F133V

Variants of: B1
Settings: with etv1_human ETV1, P50549

Row | effect of a mutation on the interaction | Variant
57 | decreasing interaction strength | F133V
